We go through 45 molecules from publication PMC9352680, “A comprehensive thermodynamic model for RNA binding by the Saccharomyces cerevisiae Pumilio protein PUF4”.

To fix the notation:
T1: PUF4 RNA-binding domain (Saccharomyces cerevisiae, UniProt P25339 537-888)
T1 sequence: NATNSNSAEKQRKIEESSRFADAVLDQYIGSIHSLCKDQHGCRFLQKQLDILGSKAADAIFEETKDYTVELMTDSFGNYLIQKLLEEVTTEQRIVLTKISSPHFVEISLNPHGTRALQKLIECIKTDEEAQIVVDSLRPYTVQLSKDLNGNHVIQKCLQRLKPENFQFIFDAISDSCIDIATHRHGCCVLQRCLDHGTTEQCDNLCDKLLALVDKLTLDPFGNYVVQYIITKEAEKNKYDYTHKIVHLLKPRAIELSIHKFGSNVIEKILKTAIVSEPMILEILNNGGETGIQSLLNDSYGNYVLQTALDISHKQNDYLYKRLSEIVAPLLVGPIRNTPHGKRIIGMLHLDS

B1: Id_ii_S1_P4E.3_K4.2_C4.2_[C-2G]_[T-1C]_H4.2_A4.1_F4.1_T4.2_[G10C]_[T11G] (ssRNA)
RNA: UCUCUUGCUAUAUAUUACGUCUCUU
B2: Ib_S1_P4E.1_K4.1_C4.1_H4.1_[A4C]_A4.1_[T5C]_F4.1_T4.1 (ssRNA)
RNA: UCUCUUUGUCCAUUAUCUCUU
B3: Id_ii_S1_P4E.3_K4.2_C4.2_[C-2G]_H4.2_A4.1_F4.1_T4.2_[G10C] (ssRNA)
RNA: UCUCUUGUUAUAUAUUACUUCUCUU
B4: Id_ii_S1_P4E.3_K4.2_C4.2_[C-2T]_[T-1C]_H4.2_A4.1_F4.1_T4.2_[G10T]_[T11C] (ssRNA)
RNA: UCUCUUUCUAUAUAUUAUCUCUCUU
B5: Id_ii_S1_P4E.3_K4.2_C4.2_[C-2T]_[T-1G]_H4.2_A4.1_F4.1_T4.2_[T11G] (ssRNA)
RNA: UCUCUUUGUAUAUAUUAGGUCUCUU
B6: Id_ii_S1_P4E.3_K4.2_C4.2_[C-2T]_[T-1C]_H4.2_A4.1_F4.1_T4.2_[G10T]_[T11A] (ssRNA)
RNA: UCUCUUUCUAUAUAUUAUAUCUCUU
B7: Id_ii_S1_P4E.3_K4.2_C4.2_[C-2G]_H4.2_A4.1_F4.1_T4.2_[G10T]_[T11G] (ssRNA)
RNA: UCUCUUGUUAUAUAUUAUGUCUCUU
B8: Id_ii_S1_P4E.3_K4.2_C4.2_[C-2G]_H4.2_A4.1_F4.1_T4.2_[G10T] (ssRNA)
RNA: UCUCUUGUUAUAUAUUAUUUCUCUU
B9: If_S1_P4E.2_K4.1_C4.2_H4.1_A4.1_F4.1_T4.2 (ssRNA)
RNA: UCUCUUCUUGUAUAUUAGUUCUCUU
B10: Id_ii_S1_P4E.3_K4.2_C4.2_[C-2G]_[T-1C]_H4.2_A4.1_F4.1_T4.2_[G10A]_[T11C] (ssRNA)
RNA: UCUCUUGCUAUAUAUUAACUCUCUU
B11: Id_ii_S1_P4E.3_K4.2_C4.2_[C-2T]_[T-1G]_H4.2_A4.1_F4.1_T4.2_[G10A]_[T11C] (ssRNA)
RNA: UCUCUUUGUAUAUAUUAACUCUCUU
B12: Ia_S1_P5E.1_K5.1_C5.1_H5.1_A5.1_F5.1_[T8G]_T5.1 (ssRNA)
RNA: UCUCUUUGUAUUAGUAUCUCUU
B13: Ib_S1_P4E.1_K4.1_C4.1_H4.1_[A4T]_A4.1_[T5A]_F4.1_T4.1 (ssRNA)
RNA: UCUCUUUGUUAAUUAUCUCUU
B14: Id_ii_S1_P4E.3_K4.2_C4.2_[C-2T]_[T-1C]_H4.2_A4.1_F4.1_T4.2_[G10A]_[T11A] (ssRNA)
RNA: UCUCUUUCUAUAUAUUAAAUCUCUU
B15: Id_ii_S1_P4E.3_K4.2_C4.2_[C-2G]_[T-1C]_H4.2_A4.1_F4.1_T4.2_[G10T]_[T11A] (ssRNA)
RNA: UCUCUUGCUAUAUAUUAUAUCUCUU
B16: Id_ii_S1_P4E.3_K4.2_C4.2_[C-2T]_[T-1G]_H4.2_A4.1_F4.1_T4.2_[G10A] (ssRNA)
RNA: UCUCUUUGUAUAUAUUAAUUCUCUU
B17: Id_ii_S1_P4E.3_K4.2_C4.2_[C-2T]_[T-1G]_H4.2_A4.1_F4.1_T4.2_[G10A]_[T11G] (ssRNA)
RNA: UCUCUUUGUAUAUAUUAAGUCUCUU
B18: Id_ii_S1_P4E.3_K4.2_C4.2_[C-2T]_[T-1C]_H4.2_A4.1_F4.1_T4.2_[G10C]_[T11C] (ssRNA)
RNA: UCUCUUUCUAUAUAUUACCUCUCUU
B19: Id_ii_S1_P4E.3_K4.2_C4.2_[C-2G]_H4.2_A4.1_F4.1_T4.2_[G10A] (ssRNA)
RNA: UCUCUUGUUAUAUAUUAAUUCUCUU
B20: Id_ii_S1_P4E.3_K4.2_C4.2_[C-2T]_[T-1G]_H4.2_A4.1_F4.1_T4.2_[G10T] (ssRNA)
RNA: UCUCUUUGUAUAUAUUAUUUCUCUU
B21: Id_ii_S1_P4E.2_K4.1_C4.2_H4.1_A4.1_F4.1_T4.2_[G10A] (ssRNA)
RNA: UCUCUUCUUGUAUAUUAAUUCUCUU
B22: Id_ii_S1_P4E.3_K4.2_C4.2_[C-2T]_[T-1C]_H4.2_A4.1_F4.1_T4.2_[G10A]_[T11G] (ssRNA)
RNA: UCUCUUUCUAUAUAUUAAGUCUCUU
B23: Id_ii_S1_P4E.3_K4.2_C4.2_[C-2G]_[T-1C]_H4.2_A4.1_F4.1_T4.2_[G10A] (ssRNA)
RNA: UCUCUUGCUAUAUAUUAAUUCUCUU
B24: Id_ii_S1_P4E.2_K4.1_C4.2_H4.1_A4.1_F4.1_T4.2_[T11C] (ssRNA)
RNA: UCUCUUCUUGUAUAUUAGCUCUCUU
B25: Id_ii_S1_P4E.3_K4.2_C4.2_[C-2T]_[T-1G]_H4.2_A4.1_F4.1_T4.2_[G10T]_[T11C] (ssRNA)
RNA: UCUCUUUGUAUAUAUUAUCUCUCUU
B26: Id_ii_S1_P4E.3_K4.2_C4.2_[C-2T]_[T-1C]_H4.2_A4.1_F4.1_T4.2_[G10C]_[T11A] (ssRNA)
RNA: UCUCUUUCUAUAUAUUACAUCUCUU
B27: Id_ii_S1_P4E.3_K4.2_C4.2_[C-2G]_[T-1C]_H4.2_A4.1_F4.1_T4.2_[G10C]_[T11A] (ssRNA)
RNA: UCUCUUGCUAUAUAUUACAUCUCUU
B28: Id_ii_S1_P4E.3_K4.2_C4.2_[C-2G]_H4.2_A4.1_F4.1_T4.2_[G10C]_[T11C] (ssRNA)
RNA: UCUCUUGUUAUAUAUUACCUCUCUU
B29: Id_ii_S1_P4E.3_K4.2_C4.2_[C-2G]_H4.2_A4.1_F4.1_T4.2_[G10A]_[T11A] (ssRNA)
RNA: UCUCUUGUUAUAUAUUAAAUCUCUU
B30: Id_ii_S1_P4E.3_K4.2_C4.2_[C-2T]_[T-1G]_H4.2_A4.1_F4.1_T4.2_[T11C] (ssRNA)
RNA: UCUCUUUGUAUAUAUUAGCUCUCUU
B31: Id_ii_S1_P4E.3_K4.2_C4.2_[C-2G]_[T-1C]_H4.2_A4.1_F4.1_T4.2_[G10A]_[T11A] (ssRNA)
RNA: UCUCUUGCUAUAUAUUAAAUCUCUU
B32: Id_ii_S1_P4E.3_K4.2_C4.2_[C-2T]_[T-1C]_H4.2_A4.1_F4.1_T4.2_[G10T] (ssRNA)
RNA: UCUCUUUCUAUAUAUUAUUUCUCUU
B33: Id_ii_S1_P4E.3_K4.2_C4.2_[C-2G]_[T-1C]_H4.2_A4.1_F4.1_T4.2_[G10C] (ssRNA)
RNA: UCUCUUGCUAUAUAUUACUUCUCUU
B34: Id_ii_S1_P4E.3_K4.2_C4.2_[C-2T]_[T-1C]_H4.2_A4.1_F4.1_T4.2_[G10C] (ssRNA)
RNA: UCUCUUUCUAUAUAUUACUUCUCUU
B35: Ib_S1_P4E.1_K4.1_C4.1_H4.1_[A4T]_A4.1_[T5C]_F4.1_T4.1 (ssRNA)
RNA: UCUCUUUGUUCAUUAUCUCUU
B36: Id_ii_S1_P4E.3_K4.2_C4.2_[C-2G]_[T-1C]_H4.2_A4.1_F4.1_T4.2_[G10T] (ssRNA)
RNA: UCUCUUGCUAUAUAUUAUUUCUCUU
B37: Id_ii_S1_P4E.3_K4.2_C4.2_[C-2T]_[T-1C]_H4.2_A4.1_F4.1_T4.2_[G10C]_[T11G] (ssRNA)
RNA: UCUCUUUCUAUAUAUUACGUCUCUU
B38: Id_ii_S1_P4E.3_K4.2_C4.2_[C-2G]_[T-1C]_H4.2_A4.1_F4.1_T4.2_[G10T]_[T11C] (ssRNA)
RNA: UCUCUUGCUAUAUAUUAUCUCUCUU
B39: Id_ii_S1_P4E.3_K4.2_C4.2_[C-2G]_[T-1C]_H4.2_A4.1_F4.1_T4.2_[G10C]_[T11C] (ssRNA)
RNA: UCUCUUGCUAUAUAUUACCUCUCUU
B40: Id_ii_S1_P4E.3_K4.2_C4.2_[C-2T]_[T-1C]_H4.2_A4.1_F4.1_T4.2_[G10A] (ssRNA)
RNA: UCUCUUUCUAUAUAUUAAUUCUCUU
B41: Id_ii_S1_P4E.3_K4.2_C4.2_[C-2G]_H4.2_A4.1_F4.1_T4.2 (ssRNA)
RNA: UCUCUUGUUAUAUAUUAGUUCUCUU
B42: Id_ii_S1_P4E.3_K4.2_C4.2_[C-2G]_H4.2_A4.1_F4.1_T4.2_[G10T]_[T11C] (ssRNA)
RNA: UCUCUUGUUAUAUAUUAUCUCUCUU
B43: Id_ii_S1_P4E.3_K4.2_C4.2_[C-2G]_[T-1C]_H4.2_A4.1_F4.1_T4.2_[G10T]_[T11G] (ssRNA)
RNA: UCUCUUGCUAUAUAUUAUGUCUCUU
B44: Ib_S1_P4E.1_K4.1_C4.1_H4.1_[A4C]_A4.1_[T5A]_F4.1_T4.1 (ssRNA)
RNA: UCUCUUUGUCAAUUAUCUCUU
B45: Id_ii_S1_P4E.3_K4.2_C4.2_[C-2T]_[T-1G]_H4.2_A4.1_F4.1_T4.2 (ssRNA)
RNA: UCUCUUUGUAUAUAUUAGUUCUCUU

In this data set the target is T1, PUF4 RNA-binding domain. Nature of the data set: Mg; RNA-MaP; 20 mM Na-HEPES pH 7.4, 30 mM KOAc, 0.75 mM MgCl2, 0.1% Tween-20, 5% glycerol, 0.1 mg/mL BSA, 2 mM DTT; 25 C; 0.0125-409.6 nM protein. The note with it: tags: N-His6-TEV cleaved; C-SNAP kept, Cy3B-labelled; label: tethered on chip by stalled RNA polymerase.
Molecule B1 had a dissociation constant Kd of 56.3 nM.
On to B2, for which the dissociation constant (Kd) is 20.5 nM.
For B3 the value was 16.9 nM; for B4, 17.2 nM.
For B5 the value was 7.71 nM; for B6, 34.9 nM; for B7, 15.3 nM.
For B8 the value was 22.3 nM.
In the case of B9, binding was characterised by a dissociation constant (Kd) of 0.286 nM.
With B10 the figure was 55 nM; with B11, 2.38 nM.
Molecule B12 showed a Kd of 18.2 nM.
For B13, binding was characterised by a dissociation constant (Kd) of 43.5 nM.
B14 registered a Kd of 61.2 nM.
Molecule B15 yielded a Kd of 57.3 nM.
With B16 the figure was 4.75 nM; with B17, 8.46 nM; with B18, 25.2 nM.
Molecule B19 had a Kd of 21 nM.
Turning to B20, the Kd stood at 4.46 nM.
B21 showed a dissociation constant Kd of 0.76 nM.
B22 gave a Kd of 130 nM.
Turning to B23, the Kd was found to be 70.2 nM.
The molecule B24 yielded a Kd of 0.287 nM.
For B25 the value was 4.63 nM.
B26: binding was put at a Kd of 23.1 nM.
For B27 the value was 44.4 nM; for B28, 13 nM; for B29, 26.8 nM.
For the molecule B30, the affinity, expressed as Kd, was 3.46 nM.
In turn, B31 returned a Kd of 126 nM.
With B32 the figure was 21.6 nM; with B33, 30.6 nM; with B34, 23.8 nM.
With B35 the figure was 21.1 nM; with B36, 29.8 nM.
With B37, the Kd came out at 30.7 nM.
B38 registered a dissociation constant (Kd) of 38.5 nM.
For B39 the value was 61.4 nM; for B40, 39.7 nM; for B41, 8.13 nM.
For B42 the value was 12.5 nM.
With B43 the figure was 42 nM; with B44, 134 nM.
For B45, the affinity, expressed as Kd, was 3.67 nM.

The term Kd denotes the free concentration of one partner at which half of the binding sites on the other are occupied at equilibrium, for simple one-to-one binding. A lower Kd goes with a tighter complex.
